Data reported in publication PMC10562830 (Science translational medicine, 2023).

B1: 506.C01 Fab (Fab, V domains shown)
VH: QVQLQESGPGLVKPSQTLSLTCTVSGGSISSDDYYWTWIRLPPGKGLEWIGYIFYTGGTYYNPSLKSRVTISLDRSKNQFSLKLSSVTAADTAVYFCARAPETYCSTTNCYKGYFDSWGQGTLVTVSS
VL: DIQMTQSPSSVSASVGDRVTITCRASQGISSWLGWYQQKPGKAPKLLIYAASSLQSGVPSRFSGSGSGTDFTLTISSLQPEDFATYYCQQANSFPRTFGQGTKVEIK
B2: 506.C01 (antibody, V domains shown)
VH: B1 VH
VL: B1 VL
B3: 506.A08 Fab (Fab, V domains shown)
VH: EEQLVESGGGLVQPGGSLRLSCAASGFTFSSYSMNWVRQAPGKGLEWVSYISSSSSTIHYADSVKGRFTISRDNAKNSLYLQMNSLRAEDTAVYYCAREGNSGYEPLDYWGQGTLVTVS
VL: not shown
B4: 506.A08 (antibody, V domains shown)
VH: B3 VH
VL: not shown

Experiments:
[1] = target: Chikungunya virus-like particles of the 37997 strain (Chikungunya virus, strain 37997, strain); assay: cryo-EM structure
[2] = target: recombinant p62-E1 protein derived from the CHIKV-LR 2006 strain (Chikungunya virus, LR 2006 …, UniProt Q1H8W5, strain); assay: ELISA

Binder	binding result [1]	binding result [2]
B1	binds	–
B2	–	binds
B3	binds	–
B4	–	binds
